Assay results taken from the DeepSol protein solubility set.

Assay: soluble on expression in E. coli; label from the status in PepcDB or PDB records

Soluble on expression in E. coli, not soluble:
MEPLKHECGIAMVRLRKPLSYYHDKYGTWMYGLNKLYLLMEKQHNRGQEGAGLAVVKLNSRPGEEYLFRERALGANAISEIFDSVHKDFQAYSREELGDAEFAASQIPYAGECYMGHLRYSTTGKSGLTFVHPMIRRSNWRAKCLSICGNFNLTNVDGIFDEITSVGQHPRNMSDTHILLEQIGHRLDREVERLFRIGKEQNLKGMDITHFIEERIDLSNVLKKCSPFWDGGYVMCGLTGSGESYAVRDPWGIRPAFYYIDDEIVVTASERPVIQTVMNLSAEAVRELMPGEAIFVNSKGEPRIERILETKNYQACSFERIYFSRGSDQDIYRERKALGYLLSERILRAIDYDISHTVFSFIPNTAEVAYYGMLEGIDHYLDECKIREIRENPNMSEAKLREILGRKVRSEKVAIKDIKLRTFITEGNSRNDLAAHVYDITYGTVQAGVDNLVVIDDSIVRGTTLRQSIIGIMDRLQPKKIVIVSSSPQIRYPDYYGIDMRKMREFVAFRSAVALLQERGMEQVLHDAYAKALELRKLSSGQEVENVVKTIYKPFTAEEISAKMVELLKPEGVRAKVEIVYQSLEGLHQAIPNHPGDWYFSGDYPTPGGAHLVNEAFISYMEEDYGK
TKDWKWKLSFNATTYKNKITSLPAEEMWSGNKKWVKGGSLYDFYLVEWAGVNPENGNPTWYRYNTNGEKITTEDYSSTTPDDKVKCGNSLPDWTGGLQSDLSFKDFTLSFLFSYSIGGKIYNGDKVSLMSQGPTGTGWSVDMLDRWTPENPYTDVPRLTTSPKSSWTNSSNRFLVDRSYLRLKNITFSYNLPKSLLNTLTLKDASIFFQAENMLTLAKQQGLDPEQTFGGSTYYRYPAMKTISFGINVKL
MIPGMRATPTESFSFVYSCDLQTNVQVKVAEFEGIFRDVLNPVRRLNQLFAEITVYCNNQQIGYPVCTSFHTPPDSSQLARQKLIQKWNEWLTLPIRYSDLSRDAFLHITIWEHEDDEIVNNSTFSRRLVAQSKLSMFSKRGILKSGVIDVQMNVSTTPDPFVKQPETWKYSDAWGDEIDLLFKQVTRQSRGLVEDVPWLDPFASRRIEMIRAKYKYSSPDRHVFLVLEMAAIRLGPTFYKVVYYEDETKNMRVSTSVNGGVGIVSACTRYCVADPELLLESLAEVKHSAMTRRIRDVEDERHRQVKPNKQAKDRLETIVNLPSSQVLTREQRDLVWKFRHYLRQFPKALNKYLRSVNWVHPQEVKTALALMNDWELIEAEDALELLSSAFTHPAVRAYSVSRLLEAASPEQVLLYLPQLVQALKYEQGQQLPEEGNPVPVVSEEEGKIPSVATTPTEELEGRDMTVVTKKEARKAASGDLATFLIDYALASPKVSNYLYWHLKTEIESTKESKEEHSKMYQNIQDRLMEALVKRPDTRAQVDSLHQQQIFVEDLIILMNEAKARGGRLNESKSAEFRTMLSRAKHMLDLKGVHLPLDPSFRLSSVIPDTASFFKSEMMPAKISFKVLQPNGKADRNIPEEYTVIFKTGDDLRQDQLIQQMVRLIDIILKKGQLDLKLTPYLVLSTGVGQGFVQCIKSKPLRAIQEQYKAHKMDCIREAMKELRPGDGPFGIEPNVIDNYVRSLAGYSVIMYILGLGDRHLDNLLLCENGKLFHVDFGFILGRDPKPMPPPMKLTSEMVQVMGGVKSKQFLEFVQHVDSAYRILRRHSNVLLNLFSLMLDAGIPDIAAEPDKAIFKIEQRLRLDLSDEAATKHIFTQIESSLNAKMAMISDIIHAYKQNLM
MAHHHHHHMKAKGPVKIVLFGAPGVGKGTFAEILSKKEKLKHINMGSILRDEIKNKTTIGREIHKVVTSGNLVADELVVKIVKGEIAKVTAQDGHFKGFILDGFPRNLLQCKQLVEITSIDLFVNIHMPRHILLKKIMGRRICHECNRNFNIAHIRDDPYDMPPILPPPECEKCKGNPKLQRRSDDEEEIVAHRLDTYESTNSHLINFFKNSNCNLVDFEIQRGLRDFDSFYRVVGQHL
MGSDKIHHHHHHMKITPIAFESLGVRSQATLIETKDLRVLVDPAVSLAPRRYNLPPHQREVDRLTQLAKVLVDVAKDVDVIVVSHYHYDHHDPGYVIPTDIYKNKIVFLKDPQNMINNSQKYRRAPRFLRSIKDKPRKIEIADGKTFEFNTTTISFSPAVPHGADERLGYVIQVAISDKDSTVIFTSDIEGAPKDVHLKFTKEKMPTVIIIDGPLSYLLGRALKEEELENSIRNMEEIIKNGLETVIIDHHVLRDINYAQVLKPVHDIAKDLGVRVTTAAEYLNLEPLILEARRKELYKEDNRPAKIPRGLANLLNAGDG
MAARHHAFILAGTGSGCGKTTVTLGLLRLLQKRALRVQPFKVGPDYLDTGWHTAICGVASRNLDSFMLPPPVLNALFCEQMRQADIAVIEGVMGLYDGYGVDPNYCSTAAMAKQLGCPVILLVDGKAVSTSLAATVMGFQHFDPTLNLAGVIVNRVTSDAHYQLLKNAIEHYCSLPVLGYVPPCDGVALPERHLGLITARESLVNQQSWHDFAATLEQTVDVDALLSLSVLSALPAGMWPERPDNTAGAGLTLALADDEAFNFYYPDNIDLLERAGVNIVRFSPLHDRALPDCQMIWLGGGYPELYAADLAANTVMLKHLRAAHQRGVAIYAECGGLMYLGSTLEDSGGEIHQMANIIPGHSKMGKRLTRFGYCEAQAMQPTLLAAPGEIVRGHEFHYSDFIPETPAVMACRKVRDGRVLQEWTGGWQTGNTFASYLHVHFAQRPEMLQHWLAAARRVL
MGSDKIHHHHHHMKIALIIENSQAAKNAVVHEALTTVAEPLGHKVFNYGMYTAEDKASLTYVMNGLLAGILLNSGAADFVVTGCGTGMGSMLAANAMPGVFCGLVIDPTDAFLFGQINDGNAISMPYSKGFGWAAELNLQDVYRKLFDGERGLGYPRERAEIMRKNRGILRELKDASCRDMLTVLKTVDQDLLRAAIAGEKFAELFYPNCKDDAIANYLRSLDA
MGSDKIHHHHHHMLHGTTTKAADALDITQPAVSKILLQLTNKAGFPLFRNHRQRLIPTPEAHMLYAEVRRLFETVRGISQIAKEIRELRSGRLNISALPAFGSTLMPSIIASFTKQYPDVAITLDIRSSSTIIQRAGRNQLDIGVASEVNDETPSVVRRALIATPPVCVMPKGHPLSKLSVVQPDDFDGLNFVSLGVGDPMRKQLDELCEQRGVNRSLKVEAALSHSCINLVANGVGVTVVDRLSAWMAKDLPIEIRDFQPHLDINLSVYRPWGTIASSVADTFIEHLIQSTREYMNVVDRGIKALSEQ
TTSRQIGSDDNTSLGTNISIDGMPLSNDAMRTQLYGITGVDRSDLYVADRTVTRRTGMNAGIDLRTISTDHIETIEIERGISSVGEGNLSSGAIRIRTKQGSAPLQMRVKADPLSKLAYVGKGFKVSKRGASIHTGIDFLHNKPDVREVLDSYKRSTLHARYSDQLNYGDMIVDLGIGLMQTFSIQDSKSDQLVNEYEETYNSKYLRSSLSFDAKVRFSGSWLNSIDWLLSADYTSDLLKRKKYYISTSGPKSMPVATESGEHEGVFLPSAYYAYYEIDNQPLYFFSRFKANTDINFTERHHHHLLYGLEARSSKNIGRGVVADPTRPPYPGNNSYIRPRPNYNIPASVYAAFFVEDRASVEWGANRLGIQAGLRATHLFNLPSSYALSRKMLIEPRIKANWQYRAEHLSINLRAGYGMENKLPTLDHLYPDKIYRDFMVLNAYMQNPELDHLITYTYIHNPENPAIRENRNVKKEIGIDMTYKRFDFSLTLFHEESRRGFEYFDSYLPIAFDRYTKLIAPLPPGHKPQKEDYIQEHHKDFFVIPTVQNSAKVVKRGIEFRLRTPYLKAINTQVEVNGAYYHTLYASGIPIMFRPIVSEYEQALYPYVGYYEGSLHKHYQRFNTNVWVNTHFPRYKLIFTSFFQIIWHDASYRGHEESEFPYAYMDLDGVVHPTSKAAILEAAATNDILKYLSRERTELYYRATYKPISLRINFKATKEFSDRMRLAFFVDNIIDINPKYKQANNTTERDWSIPYFGIETTFTL

Soluble on expression in E. coli, soluble:
MKIYIQPLSVNSHTVEVLANSLPKIFNAEVFVLPASDVSLKCYNASRRQYNSTCILRMLPPIKVTLGVTGKDIYAKGMNFVFGEAELGGARAVLSVFRLTTADSELYRERVVKEAVHEIGHVLGLKHCSNNCVMRFSNSVQDVDRKPVSFCRECASKIRYLEHHHHHH
GAMGIVGVGIDLVSIPDFAEQVDQPGTVFAETFTPGERRDASDKSSSAARHLAARWAAKEAVIKAWSGSRFAQRPVLPEDIHRDIEVVTDMWGRPRVRLTGAIAEYLADVTIHVSLTHEGDTAAAVAILEAP
GGSGWNADNVDPSQCIKQSGVQYTYNSGVSVCMQGLNEGKVRGVSVSGVFYYNDGTTSNFKGVVTPSTPVNTNQDINKTNKVGVQKYRALTEWVGSRSHHHHHH
MSLNVQTVAVIGSGTMGAGIAEVAASHGHQVLLYDISAEALTRAIDGIHARLNSRVTRGKLTAETCERTLKRLIPVTDIHALAAADLVIEAASERLEVKKALFAQLAEVCPPQTLLTTNTSSISITAIAAEIKNPERVAGLHFFNPAPVMKLVEVVSGLATAAEVVEQLCELTLSWGKQPVRCHSTPGFIVNRVARPYYSEAWRALEEQVAAPEVIDAALRDGAGFPMGPLELTDLIGQDVNFAVTCSVFNAFWQERRFLPSLVQQELVIGGRLGKKSGLGVYDWRAEREAVVGLEAVSDSFSPMKVEKKSDGVTEIDDVLLIETQGETAQALAIRLARPVVVIDKMAGKVVTIAAAAVNPDSATRKAIYYLQQQGKTVLQIADYPGMLIWRTVAMIINEALDALQKGVASEQDIDTAMRLGVNYPYGPLAWGAQLGWQRILRLLENLQHHYGEERYRPCSLLRQRALLESGYESEGHHHHHH
MSLHPHAMPDMGPDMNKVPWMGDEQIAMLVYPGMTVMDLVGPHCMFGSLMGAKIYIVAKSLDPVTSDAGLAIVPTATFGTCPRDLTVLFAPGGTDGTLAAASDAETLAFMADRGARAKYITSVCSGSLILGAAGLLKGYKATSHWSCRDALAGFGAIPTEARVVRDRNRITGAGVTAGLDFGLSMVAELRDQTYAECAQLMSEYDPDPPFNAGSMKTAPAHVRTAMIELVAEFTKKADALAGFPKEGHHHHHH
AHHHHHHGSIRVRNLSFSYNGRAILRDIAFEVKEGEFLAILGPNGAGKSTLLRCLAKILKCEGEIEICGRNLHEYSRRELSKTIAYVPQRVEPNFLRVFDMVLLGRKPYMGIIPSEEDIKAVERALKTLKIEHLAGRLTKTLSGGELQKVAIARALAQESSIILLDEPTNNLDPRSQVDLMNLLRKLSQAGKTIVTVMHDINLALRFAEKLMFMKNGEVVGIVETKKISPEIIEETFNVKAEIFETPSGVKFCQFY
MLIVGINGSPKKEGNTKYLINTVLEEAKSQGVETMVLEVGELLNSVKNPFCVVCSNPCSSICYKGTKLEEAYEILKKADAIVMGSPVYFGSVSAQLKAFFDKTRKLRSEKALYNKFACGVTVGGARFGGQETTMKALHDIMLVHGMTIVGDGYVGDDCGHHGVCAQQPADKDEFAIKRAKILGRRLVDVCKKAGALEHHHHHH
MSLGDRMKIVMVTHGGEGDAFWDRVRKGAEAAAAKDGVDLTYAGDADTADQADLVRDAIRDKADGIAVTLAKPQAMKAPVAEAKAAGIPVVGLNSGIDAWRSTGLLEYFGQDESVAGRAVGDKLDDLRAKHALCVIHERGNVALEARCAGVKKTFGGETEMLYVEGTDMKAVGAAVTARLRQDPSIDEVVMNGAAFALTAVEAVDEAGSDAHVATFDLDNDLVAAVKRGDVQFAVDQQPYLQGYLAVDALWLYRTNGNVSGGGVAPVLTGPAFVTREGHHHHHH
MRNTVNILGIPIDNVSMDEALNVVKGFLSEDRVHTVYTPNSEIMMAAQRDPELKKILCEADLLVPDGAGVVLASKINGCPLKERVAGFDLTNMLFSDEAAKAVNFFFLGGKPGVAEEAYKNLLDRKININVVGIRNGYFTKDEEEEIIRQINDSNTDVLLVALGAPKQEKWIHANKEKLKVKVCIGVGGTFDVLAGRAKRAPVFFQKHGLEWLYRLYKEPWRFVRMLDLPRFILRVIANKIRPEKPERA
